Data published in patent publication US20250002557A1.
Where two headings read alike, the source gives them in different places.

Assays:
[1] = target: VEGF-A165 (UniProt P15692); assay: blocking ELISA, VEGF A165 to VEGFR2 (Example 16)
[2] = target: T1, VEGF-B (UniProt P49765); assay: ELISA, VEGF-B coated, anti-human Fc-HRP, OD450
T1 sequence (looked up): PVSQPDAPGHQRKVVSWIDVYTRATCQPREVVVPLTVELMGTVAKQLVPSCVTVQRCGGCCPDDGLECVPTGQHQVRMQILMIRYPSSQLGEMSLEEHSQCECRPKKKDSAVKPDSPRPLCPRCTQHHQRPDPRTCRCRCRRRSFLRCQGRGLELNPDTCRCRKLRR

[3] = target: T2, PIGF (UniProt P49763); assay: ELISA, PlGF coated, anti-human Fc-HRP, OD450
T2 sequence (looked up): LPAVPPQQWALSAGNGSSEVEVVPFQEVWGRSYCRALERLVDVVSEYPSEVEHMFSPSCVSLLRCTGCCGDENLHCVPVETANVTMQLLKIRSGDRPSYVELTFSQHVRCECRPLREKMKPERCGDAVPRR

[4] = target: VEGF-A165 (UniProt P15692); assay: blocking ELISA, VEGF-A 165-His to coated VEGFR2-Fc
[5] = target: T2, PIGF; assay: ELISA, PlGF coated, anti-human Fc-HRP, OD450; remark: listed apart in the source
[6] = target: VEGF-A165 (UniProt P15692); assay: blocking ELISA, VEGF A165 to VEGFR1 (Example 16)
[7] = target: VEGF-A165 (UniProt P15692); assay: blocking ELISA, VEGF-A 165-His to coated VEGFR2-Fc; row head prints uM, paragraph 129 and ng/ml row give nM
[8] = target: VEGF-A165 (UniProt P15692); assay: blocking ELISA, VEGF-A165 to VEGFR2 (Example 13)
[9] = target: T1, VEGF-B; assay: ELISA, VEGF-B coated, anti-human Fc-HRP, OD450; remark: listed apart in the source
[10] = target: VEGF-A165 (UniProt P15692); assay: ELISA binding to VEGF-A165, absorbance 450 nm
[11] = target: VEGF-A165 (UniProt P15692); assay: blocking ELISA: His-VEGF-A165 premixed with sample, binding to coated VEGFR2-Fc read with anti-His-HRP
[12] = target: VEGF-A165 (UniProt P15692); assay: blocking ELISA, VEGF-A165 to VEGFR1 (Example 13)
[13] = target: T2, PIGF; assay: ELISA, PlGF coated, anti-human Fc-HRP, OD450; remark: listed apart in the source
[14] = target: T1, VEGF-B; assay: ELISA, VEGF-B coated, anti-human Fc-HRP, OD450; remark: listed apart in the source

Chain of Eylea (Fc fusion) (chain): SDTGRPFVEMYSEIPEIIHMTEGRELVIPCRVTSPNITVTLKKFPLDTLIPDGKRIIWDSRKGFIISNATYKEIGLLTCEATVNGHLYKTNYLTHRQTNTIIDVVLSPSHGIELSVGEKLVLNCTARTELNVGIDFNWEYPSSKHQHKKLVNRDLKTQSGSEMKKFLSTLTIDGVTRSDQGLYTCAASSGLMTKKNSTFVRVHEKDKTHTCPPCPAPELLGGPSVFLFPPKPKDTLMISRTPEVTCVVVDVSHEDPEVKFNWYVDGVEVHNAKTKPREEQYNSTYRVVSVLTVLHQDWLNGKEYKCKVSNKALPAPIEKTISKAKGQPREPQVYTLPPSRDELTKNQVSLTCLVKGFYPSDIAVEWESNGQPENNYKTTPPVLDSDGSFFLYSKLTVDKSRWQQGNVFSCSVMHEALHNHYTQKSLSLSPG
Chain of VEGF-A165 (P15692 other isoform, or with tags, fused parts or gaps limits assumed): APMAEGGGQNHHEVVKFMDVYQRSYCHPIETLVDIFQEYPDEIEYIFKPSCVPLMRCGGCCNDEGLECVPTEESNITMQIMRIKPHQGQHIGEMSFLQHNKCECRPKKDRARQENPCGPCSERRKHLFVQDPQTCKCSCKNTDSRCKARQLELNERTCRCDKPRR

Eylea (Fc fusion)
EC50 [1]: 3.94 nM | EC50 [2]: 0.94 nM | EC50 [3]: 0.1 nM | EC50 [4]: 0.32 µg/mL | EC50 [5]: 0.223 nM | EC50 [6]: 6.96 nM | EC50 [7]: 3200 nM | EC50 [8]: 2.23 nM | EC50 [9]: 0.64 nM | EC50 [10]: 0.138 nM | EC50 [11]: 1.7 nM | EC50 [12]: 4.64 nM | EC50 [13]: 0.17 nM | EC50 [14]: 1.07 nM
